# B1: alkaline phosphatase from bovine intestinal mucosa, labeled with JF646 (enzyme, UniProt P19111 20-506, looked up)
# chain: LVPVEEEDPAFWNRQAAQALDVAKKLQPIQTAAKNVILFLGDGMGVPTVTATRILKGQMNGKLGPETPLAMDQFPYVALSKTYNVDRQVPDSAGTATAYLCGVKGNYRTIGVSAAARYNQCKTTRGNEVTSVMNRAKKAGKSVGVVTTTRVQHASPAGAYAHTVNRNWYSDADLPADAQMNGCQDIAAQLVNNMDIDVILGGGRKYMFPVGTPDPEYPDDASVNGVRKRKQNLVQAWQAKHQGAQYVWNRTALLQAADDSSVTHLMGLFEPADMKYNVQQDHTKDPTLQEMTEVALRVVSRNPRGFYLFVEGGRIDHGHHDDKAYMALTEAGMFDNAIAKANELTSELDTLILVTADHSHVFSFGGYTLRGTSIFGLAPSKALDSKSYTSILYGNGPGYALGGGSRPDVNDSTSEDPSYQQQAAVPQASETHGGEDVAVFARGPQAHLVHGVEEETFVAHIMAFAGCVEPYTDCNLPAPTTATSIPD
# modifications: JF646 dye, attached by amine-NHS chemistry (nonspecific labeling; one or two dyes per molecule seen)
# Target: the molecule itself
# Assay: ABEL trap-based single-molecule diffusometry
protein,measurement,value
B1,stoichiometry N,2
